Measurements published in patent US20260191907A1 (INSTITUT CURIE, published 2026).

B1: B1 nanobody (anti-FGFR4 sdAb, NaLi-H1 library) (VHH)
VHH: EVQLQASGGGFVQPGGSLRLSCAASGYTSRSSAMGWFRQAPGKEREFVSAISDLTGYPYYYADSVKGRFTISRDNSKNTVYLQMNSLRAEDTATYYCAAYQDDKWTYGSQHGKYWGQGTQVTVSS
notes: also called B1 sdAb; not shown: C-terminal Myc/6xHis-tag and an additional cysteine
B2: A8 nanobody (anti-FGFR4 sdAb, NaLi-H1 library) (VHH)
VHH: EVQLQASGGGFVQPGGSLRLSCAASGRTYSRDTMGWFRQAPGKEREFVSAISSRHSHTTYYADSVKGRFTISRDNSKNTVYLQMNSLRAEDTATYYCAEWDVFDMHYALPPMWYWGQGTQVTVSS
notes: also called A8 sdAb; not shown: C-terminal Myc/6xHis-tag and an additional cysteine
B3: F8 nanobody (anti-FGFR4 sdAb, Gimli library) (VHH)
VHH: EVQLVESGGGLVQPGGSLRLSCAASGTGYALDDMGWVRQAPGKGLEWVSAISDDESMADYYADSVKGRFTISRDNSKNTVYLQMNSLRAEDTAVYYCASYKEYKYQSGHHYFAYRGQGTLVTVSS
notes: Recombinant nanobody of about 17 kDa; also called F8 sdAb; not shown: C-terminal Myc/6xHis-tag and an additional cysteine
B4: B5 nanobody (anti-FGFR4 sdAb, NaLi-H1 library) (VHH)
VHH: EVQLQASGGGFVQPGGSLRLSCAASGRTSWLTTMGWFRQAPGKEREFVSAISSFSSKQGYYADSVKGRFTISRDNSKNTVYLQMNSLRAEDTATYYCAYASYPRHQGNGRWKDFVEYWGQGTQVTVSS
notes: Recombinant nanobody of about 17 kDa; also called B5 sdAb; not shown: C-terminal Myc/6xHis-tag and an additional cysteine

Experiments:
[1] = biological target: T1, Recombinant FGFR4 (G&P Biosciences) (human, UniProt P22455 22-369); experiment: SPR (BIAcore T200), single cycle kinetics, FGFR4 amine-immobilised, nanobody as analyte, heterogeneous ligand model, component 2 (kon2)
T1 construct: Bought protein; the SPR method says only 'Recombinant; also called rFGFR4; extracellular FGFR4
T1 sequence: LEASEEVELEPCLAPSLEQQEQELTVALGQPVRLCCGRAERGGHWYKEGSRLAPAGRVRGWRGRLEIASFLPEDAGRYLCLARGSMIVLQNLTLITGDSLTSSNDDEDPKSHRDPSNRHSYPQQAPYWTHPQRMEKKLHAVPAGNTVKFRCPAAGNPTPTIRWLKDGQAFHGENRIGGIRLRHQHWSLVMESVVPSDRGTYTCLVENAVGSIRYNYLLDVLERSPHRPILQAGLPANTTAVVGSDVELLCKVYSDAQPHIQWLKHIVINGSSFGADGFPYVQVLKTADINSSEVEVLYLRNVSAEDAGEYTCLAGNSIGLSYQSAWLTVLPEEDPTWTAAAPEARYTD
Protocol: (§1) FIG. 3: Affinity determination of nanobodies to recombinant protein via surface plasmon resonance spectroscopy. Single cycle kinetics analysis was performed on immobilized FGFR4 through covalent amine binding on the dextran based sensor chip. The analytes A8, B1, B5, F8 and mCh were injected in 5 different concentrations followed by a dissociation phase. A final dissociation step was added after the last injection step to determine Koff rates for the KD calculations. The black curves represent the measured data and red curves show the fit analysis (heterogeneous ligand model) performed with the BIAevaluation software.
(§2) Single cycle kinetics analysis was performed with the BIAcore® T200 instrument (GE Healthcare) on CMD200M sensor chips (XanTec bioanalytics GmbH) activated with a mixture of 300 mM NHS (N-hydroxysuccinimide) and 50 mM EDC (N-ethyl-N′-(dimethylaminopropyl) carbodiimide). Recombinant FGFR1, FGFR2, FGFR3 and FGFR4 (G&P Biosciences) were immobilized on the activated biosensors (800 to 12′000 RU; 1 RU=1 pg/mm²) followed by a blocking step with 1M ethanolamine. One flow channel per chip was used as a reference to provide background corrections. The nanobodies were injected at 5 different concentrations followed by a dissociation phase. Koff-rates were determined from a final dissociation step after the last injection. The measurements with FGFR4 were performed for each nanobody on freshly immobilized protein due to strong binding and incomplete dissociation from the surface. Immobilization flow rate was 5 μl/min and binding studies were performed at 30 μl/min. Binding parameters were determined with the heterogeneous ligand model fit of the BIAevaluation software. The black curves represent the measured data and red curves show the performed fit analysis.
(§3) To determine the binding affinity of the nanobodies to FGFR4, we performed surface plasmon resonance (SPR) spectroscopy with recombinant FGFR4. As already mentioned above, FGFR1 and FGFR2 are expressed on Rh4-FR4ko cells and flow cytometry analysis indicated no binding of the nanobodies to the cells. To further confirm FGFR4-specificity, we included also affinity measurements with recombinant FGFR1, FGFR2 and FGFR3. Nanobodies A8, B1, B5, F8, and mCh were injected in five different concentrations on a FGFR coated chip.

[2] = biological target: T2, Recombinant FGFR3 (G&P Biosciences) (UniProt P22607 23-375, limits assumed); experiment: SPR, FGFR3 immobilised, nanobody as analyte at five concentrations
T2 construct: Immobilised on the SPR chip
T2 sequence (looked up): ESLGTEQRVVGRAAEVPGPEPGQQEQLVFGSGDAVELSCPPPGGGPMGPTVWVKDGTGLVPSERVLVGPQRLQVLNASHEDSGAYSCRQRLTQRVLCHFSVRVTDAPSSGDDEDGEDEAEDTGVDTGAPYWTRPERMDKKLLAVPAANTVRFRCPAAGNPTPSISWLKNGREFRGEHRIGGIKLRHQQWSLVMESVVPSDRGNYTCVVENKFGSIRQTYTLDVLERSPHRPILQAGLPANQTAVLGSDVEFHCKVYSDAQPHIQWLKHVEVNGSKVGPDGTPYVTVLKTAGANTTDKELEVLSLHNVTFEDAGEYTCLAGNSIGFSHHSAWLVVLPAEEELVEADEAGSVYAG
Protocol: as §2
as §3, with “chip. Except for the negative control mCh, calculated KD values for FGFR4 binding were in the nano- and picomolar range (FIG. 3; Table 2). Affinity parameters could not be fitted with a 1:1 binding model and best fits were obtained with the heterogeneous ligand model of the BIAevaluation software resulting in two KD values for each candidate.” for “chip.”

[3] = biological target: T1, Recombinant FGFR4 (G&P Biosciences); experiment: SPR (BIAcore T200), single cycle kinetics, FGFR4 amine-immobilised, nanobody as analyte, heterogeneous ligand model, component 1 (KD1)
Protocol: as §1, §2, §3

Binder	kon [1]	binding result [2]	Kd [3]
B1	216000 M⁻¹ s⁻¹	no binding	1.06 pM
B2	66700 M⁻¹ s⁻¹	no binding	0.00422 pM
B3	1.35e+06 M⁻¹ s⁻¹	no binding	19.1 pM
B4	173000 M⁻¹ s⁻¹	no binding	308 pM
